This note sets out measurements from patent publication US20190049463A1 (VIB VZW, published 2019).

The target of test [1] is β2AR truncated after amino acid 365 (β2AR-365), native (human) (UniProt P07550). Briefly: cell-based or functional assay.
For test [2], the target named is T1, β2AR truncated after amino acid 365 (β2AR-365), native (human, UniProt P07550 1-365).
T1 construct: Expressed in Sf9 insect cells; Used detergent-solubilized, in phospholipid vesicles, in Sf9 membranes or in HDL particles; In the bimane assays it carried monobromobimane on Cys265; also called WT β2AR
As to the kind of experiment: listed as β2AR-specific; phage selection and ELISA on reconstituted β2AR-365. Here is the method:
In a first screen we compared the binding of the nanobodies on the native and heat denatured β₂AR antigen in an ELISA. […] Next, this plate was incubated at 80° C. for two hours.
A single llama received six weekly administrations of the reconstituted truncated β₂AR. Lymphocytes were isolated from the blood of the immunized llama and total RNA was prepared from these cells. […] Antigen-bound phages were recovered from antigen-coated wells either with thriethylamine pH11 and neutralized with Tris-HCl pH7 or by the addition of freshly grown TG1 E. coli cells. After two rounds of bio-panning, 96 individual colonies were randomly picked and the nanobodies produced as a soluble HIS-tagged protein in the periplasm of the TG1 cells.
(An ELISA detects its analyte on a solid surface through an enzyme-linked reagent.)

In test [3] the target is β2AR-T4L fusion protein (third intracellular loop replaced by T4 lysozyme, truncated at position 365) (human) (UniProt P07550). Briefly: cell-based or functional assay.
In test [4] the target is T1, β2AR truncated after amino acid 365 …. As to the kind of experiment: cell-based or functional assay.

In the case of Gs heterotrimer, in test [1], the Ki of (-)-isoproterenol, high affinity state, β2AR/HDL reconstituted with Gs was determined as 1.07 nM; the Ki of (-)-isoproterenol, low affinity state, β2AR/HDL reconstituted with Gs stood at 95.3 nM; the Ki of (-)-isoproterenol, low affinity state, β2AR/HDL reconstituted with Gs in the presence of 10 µM GTPγS was found to be 95.2 nM; the fold increase of the affinity of isoproterenol for β2AR/HDL was 100 fold.

B1: Nanobody CA2784 (VHH)
VHH: QVQLQESGGGLVQAGGSLRLSCAASGSIFSINAMGWYRQAPGKQRELVAAITSGGSTTYADSVKGRFTVSRDNAKNTVYLQMIRLKPEDTAVYYCHVRDIYSDFLGQYEYDYWGQGTQVTVSS
notes: also called NB84 (short notation shared with CA3484)
On to B1, for which the binding result in test [2] was “binds”.

B2: Nanobody CA3422 (VHH)
VHH: QVQLQESGGGLVQAGGSLRLSCAASGSIFSINAMGWYRQAPGKQRELVAASTSGDITNYADSVKGRFTISRDNAKNTVYLQMNSLEPEDTGVYYCNARGIYSDYAFADFNSWGQGTQVTVSS
notes: also called NB22
With B2, the binding result in test [2] is recorded as “binds”.

B3: Nanobody-80 (Nb80), reference number CA2780 (VHH, not shown: small tags and cut ends)
VHH: QVQLQESGGGLVQAGGSLRLSCAASGSIFSINTMGWYRQAPGKQRELVAAIHSGGSTNYANSVKGRFTISRDNAANTVYLQMNSLKPEDTAVYYCNVKDYGAVLYEYDYWGQGTQVTVSS
As for B3, in test [3], the Ki of (-)-isoproterenol, high affinity state, β2AR-T4L/HDL with 1 µM Nb80 (33.5 without) was 0.56 nM and the fold increase of the affinity of isoproterenol for β2AR-T4L/HDL was found to be 60 fold.

B4: Nanobody CA2764 (VHH)
VHH: QVQLQESGGGLVQAGGSLRLSCAASGSIFSINTMGWYRQAPGKQRELVAAIHSGGSTNYADSVKGRFTISRDNAKNTVYLQMNSLKPEDTAVYYCNVKDYGAVLYEYDYWGQGTQVTVSS
notes: also called NB64
Consider B4, for which, in test [2], the binding result is “binds”.

B5: Nanobody 65, reference number CA2765 (VHH)
VHH: QVQLQESGGGLVQAGGSLRLSCAASGSIFSINTMGWYRQAPGKQRELVAAIHSGGSTNYADSVRGRFTISRDNAKNTVYLQMNSLKPEDTAVYYCNVKDYGAVLYEYDYWGQGTQVTVSS
B5: the “Ki of (-)-isoproterenol for β2AR, [3H]-DHA competition on Sf9 membranes with 1 µM nanobody (295 without nanobody)” value (from here on “Ki of (-)-isoproterenol … (295 without nanobody)”) in test [4] is 13.8 nM.

B6: Nanobody CA3413 (VHH)
VHH: QVQLQESGGGLVQAGGSLRLSCAASGSIFSINTMGWYRQAPGKRRELVAAIHSGGSTNYANSVKGRFTISRDNAANTVYLQMNSLKPEDTAVYYCNVKDYGAVLYEYDYWGQGTQVTVSS
notes: also called NB13
Regarding B6, the binding result in test [2] was “binds”.

B7: Nanobody CA3431 (VHH)
VHH: QVQLQESGGGLVQPGGSLRLSCAASGSIFSINTMGWYRQAPGKQRELVAAIHSGGSTNYANSVKGRFTISRDNAANTVYLQMNSLKPEDTAVYYCNVKDYGAVLYEYDYWGQGTQVTVSS
notes: also called NB31
For B7, in test [2], the binding result is given as “binds”.

B8: Nanobody CA3424 (VHH)
VHH: QVQLQESGGGLVQAGGSLRLSCAASGSVFSLPTAGWYRQAPGKQRELVALITGSGSTHYADSVKGRFAISREYSKKTMDLQMNSLHREDTAVYFCYYRSTFTEYWGQGTQVTVSS
notes: also called NB24
For B8, the binding result in test [2] was “binds”.

B9: Nanobody 71, reference number CA2771 (VHH)
VHH: QVQLQESGGGLVQPGGSLRLSCAASGFAFSSYELRWYRQAPGKQHELVAGITTGGNTYYADSVKGRFTISRDNAKNTVYLQMSNLRPEDTAVYACNANWDLLSDYWGQGTQVTVSS
In the case of B9, the “Ki of (-)-isoproterenol … (295 without nanobody)” value in test [4] came out at 10.6 nM.

B10: Nanobody CA3477 (VHH)
VHH: QVQLQESGGGLVQAGGSLRLSCAASGSIFSLNDMGWYRQAPGKQRELVAAITSGGSTNYADSVKGRFTISRDNAKNTVYLQMNSLKPEDTAVYYCNAKVAGTFSIYDYWGQGTQVTVSS
notes: also called NB77
As to B10, the binding result in test [2] is given as “binds”.

B11: Nanobody CA3433 (VHH)
VHH: QVQLQESGGGLVQAGGSLRLSCAASGSIFSLNDMGWYRQAPGKLRELVAAVTSGGSTNYADSVKGRFTISRDNAKNTVYLQMNSLKPEDTAVYYCNAKVAGTFSIYDYWGQGTQVTVSS
notes: also called NB33
For the molecule B11, in test [2], the binding result was “binds”.

B12: Nanobody CA3484 (VHH)
VHH: QVQLQESGGGLVQAGGSLRLSCAASGSIFSLNDMGWYRQAPGKLRELVAAITSGGSTKYADPVKGRFTISRDNAKNTVYLQMNSLKAEDTAVYYCNAKVAGTFSIYDYWGQGTQVTVSS
notes: also called NB84 (short notation shared with CA2784)
With B12, the binding result in test [2] was “binds”.

B13: Nanobody CA3420 (VHH)
VHH: QVQLQESGGGLVQAGGSLRLSCAASGSIFSLNDMGWYRQAPGKQRDLVAAITSGGSTKYADSVKGRFTVSRDNAKNTVYLQMNSLKPEDTAVYYCNAKVAGTFSIYDYWGQGTQVTVSS
notes: also called NB20
Regarding B13, the binding result in test [2] is “binds”.

B14: Nanobody CA3475 (VHH)
VHH: QVQLQESGGGLVQAGGPLRLSCAASGSIFSLNDMGWYRQAPGKQRELVAAITSGGSTNYADSVKGRFTISRDNAKNTVYLQMNSLKPEDTAVYYCNAVVAGTFSTYDYWGQGTQVTVSS
notes: also called NB75
As to B14, the binding result in test [2] is “binds”.

B15: Nanobody CA3472 (VHH)
VHH: QVQLQESGGGLVQPGGSLRLSCAASGSIFSLNDMGWYRQAPGKQRELVAAISSGGRLNYADSVKGRFTISRDNAKNTVYLQMNSLKPEDTAVYYCNAVVAGTFSTYDYWGQGTQVTVSS
notes: also called NB72 (short notation shared with CA2772)
Take B15: the binding result in test [2] is recorded as “binds”.

B16: Nanobody 67, reference number CA2767 (VHH)
VHH: QVQLQESGGGLVQAGGSLRLSCAASGTISSFIAMGWYRQSPGKQRELVAGITSGGETNYEDSVKGRFTISRDNAKNTLYLQMNTLKPEDTAVYYCNAQVFADIFNLINYWGQGTQVTVSS
In the case of B16, the “Ki of (-)-isoproterenol … (295 without nanobody)” value in test [4] worked out at 19.4 nM.
